In patent US20220048967A1 (published 2022):
Numbered stars: 1 amine (or outer) side, 2 acyl side, 3 side chain; on linkers, the order of the positions; unused ones are H or OH. Square brackets hold non-standard residues; d marks the D form. Side chains are listed from the residue outwards. Ends that are not written are not given here. * marks the point of attachment. C18 diacid = O=C(O)CCCCCCCCCCCCCCCCC(=O)*; γGlu = O=C(O)[C@H](CCC(=O)[*:2])N[*:1]; AEEA = NCCOCCOCC(=O)O; Aib = CC(C)(N)C(=O)O

B1: Example 266 (peptide)
peptide: Y[Aib]EGTFTSDYSILLDKK([AEEA-AEEA-γGlu-C18 diacid])AQ[Aib]AFIEYLIEGGPSSG-NH2
modifications: N-terminus assumed
SMILES: CC[C@H](C)[C@H](NC(=O)[C@H](CC(C)C)NC(=O)[C@H](Cc1ccc(O)cc1)NC(=O)[C@H](CCC(=O)O)NC(=O)[C@@H](NC(=O)[C@H](Cc1ccccc1)NC(=O)[C@H](C)NC(=O)C(C)(C)NC(=O)[C@H](CCC(N)=O)NC(=O)[C@H](C)NC(=O)[C@H](CCCCNC(=O)COCCOCCNC(=O)COCCOCCNC(=O)CC[C@H](NC(=O)CCCCCCCCCCCCCCCCC(=O)O)C(=O)O)NC(=O)[C@H](CCCCN)NC(=O)[C@H](CC(=O)O)NC(=O)[C@H](CC(C)C)NC(=O)[C@H](CC(C)C)NC(=O)[C@@H](NC(=O)[C@H](CO)NC(=O)[C@H](Cc1ccc(O)cc1)NC(=O)[C@H](CC(=O)O)NC(=O)[C@H](CO)NC(=O)[C@@H](NC(=O)[C@H](Cc1ccccc1)NC(=O)[C@@H](NC(=O)CNC(=O)[C@H](CCC(=O)O)NC(=O)C(C)(C)NC(=O)[C@@H](N)Cc1ccc(O)cc1)[C@@H](C)O)[C@@H](C)O)[C@@H](C)CC)[C@@H](C)CC)C(=O)N[C@@H](CCC(=O)O)C(=O)NCC(=O)NCC(=O)N1CCC[C@H]1C(=O)N[C@@H](CO)C(=O)N[C@@H](CO)C(=O)NCC(N)=O
B2: Example 270 (peptide)
peptide: Y[Aib]EGTFTSDYSILLDKK([AEEA-AEEA-γGlu-C18 diacid])AQ[Aib]EFIEYLIEGGPSSG-NH2
modifications: N-terminus assumed
SMILES: CC[C@H](C)[C@H](NC(=O)[C@H](CC(C)C)NC(=O)[C@H](Cc1ccc(O)cc1)NC(=O)[C@H](CCC(=O)O)NC(=O)[C@@H](NC(=O)[C@H](Cc1ccccc1)NC(=O)[C@H](CCC(=O)O)NC(=O)C(C)(C)NC(=O)[C@H](CCC(N)=O)NC(=O)[C@H](C)NC(=O)[C@H](CCCCNC(=O)COCCOCCNC(=O)COCCOCCNC(=O)CC[C@H](NC(=O)CCCCCCCCCCCCCCCCC(=O)O)C(=O)O)NC(=O)[C@H](CCCCN)NC(=O)[C@H](CC(=O)O)NC(=O)[C@H](CC(C)C)NC(=O)[C@H](CC(C)C)NC(=O)[C@@H](NC(=O)[C@H](CO)NC(=O)[C@H](Cc1ccc(O)cc1)NC(=O)[C@H](CC(=O)O)NC(=O)[C@H](CO)NC(=O)[C@@H](NC(=O)[C@H](Cc1ccccc1)NC(=O)[C@@H](NC(=O)CNC(=O)[C@H](CCC(=O)O)NC(=O)C(C)(C)NC(=O)[C@@H](N)Cc1ccc(O)cc1)[C@@H](C)O)[C@@H](C)O)[C@@H](C)CC)[C@@H](C)CC)C(=O)N[C@@H](CCC(=O)O)C(=O)NCC(=O)NCC(=O)N1CCC[C@H]1C(=O)N[C@@H](CO)C(=O)N[C@@H](CO)C(=O)NCC(N)=O
B3: Example 261 (peptide)
peptide: YXEGTFTSDYSILLDKKAQEAFIEYLIEGGPSSGAPPPS
modifications: Aib2, (2-[2-(2-Amino-ethoxy)-ethoxy]-acetyl)2-(γ-Glu)-CO-(CH2)18-CO2H on K17, C-terminal NH2
B4: Example 263 (peptide)
peptide: YXEGTFTSDYSILLDKKAQSAFIEYLIEGGPSSGAPPPS
modifications: Aib2, (2-[2-(2-Amino-ethoxy)-ethoxy]-acetyl)2-(γ-Glu)-CO-(CH2)18-CO2H on K17, C-terminal NH2
B5: Example 262 (peptide)
peptide: YXEGTFTSDYSILLDKKAQTAFIEYLIEGGPSSGAPPPS
modifications: Aib2, (2-[2-(2-Amino-ethoxy)-ethoxy]-acetyl)2-(γ-Glu)-CO-(CH2)18-CO2H on K17, C-terminal NH2
B6: Example 265 (peptide)
peptide: YXEGTXTSDXSIXLDXKAQXEFIXXLIEGG
modifications: Aib2, αMeF(2F)6, 4Pal10, αMeF13 (so in the source), Orn16, (2-[2-(2-Amino-ethoxy)-ethoxy]-acetyl)2-(γ-Glu)-CO-(CH2)16-CO2H on K17, Aib20, D-Glu24, αMeY25, C-terminal NH2
B7: Example 264 (peptide)
peptide: YXEGTXTSDXSIXLDXKAQXEFIXXLIEGGPSSG
modifications: Aib2, αMeF(2F)6, 4Pal10, αMeF13 (so in the source), Orn16, (2-[2-(2-Amino-ethoxy)-ethoxy]-acetyl)2-(γ-Glu)-CO-(CH2)16-CO2H on K17, Aib20, D-Glu24, αMeY25, C-terminal NH2
B8: Example 269 (peptide)
peptide: Y[Aib]EGTFTSDYSILLDEK([AEEA-AEEA-γGlu-C18 diacid])AQ[Aib]AFIEYLIEGG-NH2
modifications: N-terminus assumed
SMILES: CC[C@H](C)[C@H](NC(=O)[C@H](CC(C)C)NC(=O)[C@H](Cc1ccc(O)cc1)NC(=O)[C@H](CCC(=O)O)NC(=O)[C@@H](NC(=O)[C@H](Cc1ccccc1)NC(=O)[C@H](C)NC(=O)C(C)(C)NC(=O)[C@H](CCC(N)=O)NC(=O)[C@H](C)NC(=O)[C@H](CCCCNC(=O)COCCOCCNC(=O)COCCOCCNC(=O)CC[C@H](NC(=O)CCCCCCCCCCCCCCCCC(=O)O)C(=O)O)NC(=O)[C@H](CCC(=O)O)NC(=O)[C@H](CC(=O)O)NC(=O)[C@H](CC(C)C)NC(=O)[C@H](CC(C)C)NC(=O)[C@@H](NC(=O)[C@H](CO)NC(=O)[C@H](Cc1ccc(O)cc1)NC(=O)[C@H](CC(=O)O)NC(=O)[C@H](CO)NC(=O)[C@@H](NC(=O)[C@H](Cc1ccccc1)NC(=O)[C@@H](NC(=O)CNC(=O)[C@H](CCC(=O)O)NC(=O)C(C)(C)NC(=O)[C@@H](N)Cc1ccc(O)cc1)[C@@H](C)O)[C@@H](C)O)[C@@H](C)CC)[C@@H](C)CC)C(=O)N[C@@H](CCC(=O)O)C(=O)NCC(=O)NCC(N)=O
B9: Example 268 (peptide)
peptide: Y[Aib]EGTFTSDYSILLDEK([AEEA-AEEA-γGlu-C18 diacid])AQ[Aib]AFIEYLIEGGPSSG-NH2
modifications: N-terminus assumed
SMILES: CC[C@H](C)[C@H](NC(=O)[C@H](CC(C)C)NC(=O)[C@H](Cc1ccc(O)cc1)NC(=O)[C@H](CCC(=O)O)NC(=O)[C@@H](NC(=O)[C@H](Cc1ccccc1)NC(=O)[C@H](C)NC(=O)C(C)(C)NC(=O)[C@H](CCC(N)=O)NC(=O)[C@H](C)NC(=O)[C@H](CCCCNC(=O)COCCOCCNC(=O)COCCOCCNC(=O)CC[C@H](NC(=O)CCCCCCCCCCCCCCCCC(=O)O)C(=O)O)NC(=O)[C@H](CCC(=O)O)NC(=O)[C@H](CC(=O)O)NC(=O)[C@H](CC(C)C)NC(=O)[C@H](CC(C)C)NC(=O)[C@@H](NC(=O)[C@H](CO)NC(=O)[C@H](Cc1ccc(O)cc1)NC(=O)[C@H](CC(=O)O)NC(=O)[C@H](CO)NC(=O)[C@@H](NC(=O)[C@H](Cc1ccccc1)NC(=O)[C@@H](NC(=O)CNC(=O)[C@H](CCC(=O)O)NC(=O)C(C)(C)NC(=O)[C@@H](N)Cc1ccc(O)cc1)[C@@H](C)O)[C@@H](C)O)[C@@H](C)CC)[C@@H](C)CC)C(=O)N[C@@H](CCC(=O)O)C(=O)NCC(=O)NCC(=O)N1CCC[C@H]1C(=O)N[C@@H](CO)C(=O)N[C@@H](CO)C(=O)NCC(N)=O
B10: Example 267 (peptide)
peptide: Y[Aib]EGTFTSDYSILLDKK([AEEA-AEEA-γGlu-C18 diacid])AQ[Aib]AFIEYLIEGG-NH2
modifications: N-terminus assumed
SMILES: CC[C@H](C)[C@H](NC(=O)[C@H](CC(C)C)NC(=O)[C@H](Cc1ccc(O)cc1)NC(=O)[C@H](CCC(=O)O)NC(=O)[C@@H](NC(=O)[C@H](Cc1ccccc1)NC(=O)[C@H](C)NC(=O)C(C)(C)NC(=O)[C@H](CCC(N)=O)NC(=O)[C@H](C)NC(=O)[C@H](CCCCNC(=O)COCCOCCNC(=O)COCCOCCNC(=O)CC[C@H](NC(=O)CCCCCCCCCCCCCCCCC(=O)O)C(=O)O)NC(=O)[C@H](CCCCN)NC(=O)[C@H](CC(=O)O)NC(=O)[C@H](CC(C)C)NC(=O)[C@H](CC(C)C)NC(=O)[C@@H](NC(=O)[C@H](CO)NC(=O)[C@H](Cc1ccc(O)cc1)NC(=O)[C@H](CC(=O)O)NC(=O)[C@H](CO)NC(=O)[C@@H](NC(=O)[C@H](Cc1ccccc1)NC(=O)[C@@H](NC(=O)CNC(=O)[C@H](CCC(=O)O)NC(=O)C(C)(C)NC(=O)[C@@H](N)Cc1ccc(O)cc1)[C@@H](C)O)[C@@H](C)O)[C@@H](C)CC)[C@@H](C)CC)C(=O)N[C@@H](CCC(=O)O)C(=O)NCC(=O)NCC(N)=O

How the values were obtained:
[1] = molecular target: T1, human gastric inhibitory peptide receptor (GIPR) (human, UniProt P48546 22-466); test: cell-based or functional assay
T1 sequence (looked up): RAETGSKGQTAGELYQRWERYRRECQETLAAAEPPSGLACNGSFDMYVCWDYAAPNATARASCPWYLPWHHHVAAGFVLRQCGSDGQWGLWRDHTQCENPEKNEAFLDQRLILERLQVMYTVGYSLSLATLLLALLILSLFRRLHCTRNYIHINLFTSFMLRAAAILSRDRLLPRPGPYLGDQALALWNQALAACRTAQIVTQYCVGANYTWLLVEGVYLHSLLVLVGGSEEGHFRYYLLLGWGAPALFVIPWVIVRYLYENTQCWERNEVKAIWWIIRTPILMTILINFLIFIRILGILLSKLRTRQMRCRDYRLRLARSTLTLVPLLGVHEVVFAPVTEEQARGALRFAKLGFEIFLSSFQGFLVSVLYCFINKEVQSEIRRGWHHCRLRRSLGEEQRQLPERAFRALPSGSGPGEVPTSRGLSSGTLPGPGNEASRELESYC

[2] = molecular target: human GLP-1 receptor (GLP-1R) (human, UniProt P43220 24-463); test: cell-based or functional assay

Binder | hGIPR cAMP EC50 ratio [1] | hGIPR cAMP Rel EC50 [1] | hGLP1R cAMP EC50 ratio [2] | hGLP1R cAMP Rel EC50 [2]
B1 | 2.82 | 44.2 pM | 0.627 | 88.3 pM
B2 | 0.627 | 328 pM | 0.4 | 128 pM
B3 | 0.936 | 160 pM | 0.75 | 94.8 pM
B4 | 0.473 | 317 pM | 0.906 | 78.5 pM
B5 | 1.15 | 130 pM | 0.754 | 94.3 pM
B6 | 7.56 | 22.9 pM | 3.27 | 22.3 pM
B7 | 8.4 | 19.6 pM | 3.19 | 22.9 pM
B8 | 0.825 | 257 pM | 0.828 | 59.5 pM
B9 | 0.851 | 239 pM | 0.935 | 57.2 pM
B10 | 1.5 | 108 pM | 0.974 | 54 pM
